The values below come from publication PMC3844517.

Assay in all cases: co-IP
The target of assay [1] is Plk4-EGFP A18 (Drosophila) (UniProt O97143).
Assay [2] concerns the target Plk4-EGFP A15 (Drosophila) (UniProt O97143).
For assay [3], the target named is Plk4-EGFP A17 (Drosophila) (UniProt O97143).
In assay [4] the target is Plk4-EGFP A26 (Drosophila) (UniProt O97143).
The target of assay [5] is Plk4-EGFP A19 (Drosophila) (UniProt O97143).
For assay [6], the target named is Plk4-EGFP A16 (Drosophila) (UniProt O97143).
The target of assay [7] is Plk4-EGFP A20 (Drosophila) (UniProt O97143).

Take “Slimb (F-box protein of the SCF ubiquitin ligase) (natural protein)”: the further fold decrease of Slimb binding (beyond A14) in assay [1], in assay [2], in assay [3], in assay [5], in assay [6] and in assay [7] was 2 fold in each case. In assay [4], this substance showed a fold reduction in the amount of associated Slimb of 5 fold.
